20 sequences from the DeepSol protein solubility set can be followed below.

The data set is described as follows: soluble on expression in E. coli; label from the status in PepcDB or PDB records.
Consider “MGQVLPLVTRQGDRIAIVSGLRTPFARQATAFHGIPAVDLGKMVVGELLARSEIPAEVIEQLVFGQVVQMPEAPNIAREIVLGTGMNVHTDAYSVSRACATSFQAVANVAESLMAGTIRAGIAGGADSSSVLPIGVSKKLARVLVDVNKARTMSQRLKLFSRLRLRDLMPVPPAVAEYSTGLRMGDTAEQMAKTYGITREQQDALAHRSHQRAAQAWSDGKLKEEVMTAFIPPYKQPLVEDNNIRGNSSLADYAKLRPAFDRKHGTVTAANSTPLTDGAAAVILMTESRAKELGLVPLGYLRSYAFTAIDVWQDMLLGPAWSTPLALERAGLTMSDLTLIDMHEAFAAQTLANIQLLGSERFAREALGRAHATGEVDDSKFNVLGGSIAYGHPFAATGARMITQTLHELRRRGGGFGLVTACAAGGLGAAMVLEAE”, for which the “soluble on expression in E. coli” value was “soluble”.

For the sequence “MGREVAESCVDTMLMEMVAMYSGRFYANKPELAARRIEAIGYQVGHQLSERYTMERPRFSDHLEAIKFICKDFWSEVFKKQIDNLKTNHRGTFVLQDNKFRWLSRVSIDPSSENETQDPSTPGESKAAQAVSMYLYFPCGIIRGVLSNLGIPCAVSADISSLPTCSFVIRVKA”, the “soluble on expression in E. coli” value was “not soluble”.

In the case of “MGRFLLVDKKAPNYENLIDKEMNEIYERVKKIDPNQNEFLQAFHEILYSLKPLFMEDPKYLPIIEMLSEPERLVQFRVCWIDDNGIQRKNRGFRVQFNSTLGIYKGGLRFHPSVNLSIVKFLGFEQIFKNSLTGLSMGGAKGGSDFDPKGKSDNEIMKFCQSFMNELYRHIGPRTDVPAGDIGVGGREIGYLFGQYKKIANSFNGTLTGKNEKWGGSILRTEATGYGLVYFVLEVLKSLNIQMDKQTAIVSGSGNVALYCVQKLLQLNVKVLTMSDSNGYIYEPNGFTNDDLNFIIELKEVRKGRIEEYLKHSSTAKYFPNEKPWNVKCTLAFPCATQNEIDLDDAKLLHKNGCILVGEGANMPSTIEAINYLKENKIILCPSKAANAGGVAISGLEMSQNFQFAKWTKETVDEKLKEIMKNIFISSSESALKYANNKYDLQVGANISGFLKVADSYIQQGL”, the “soluble on expression in E. coli” value was “soluble”.

In the case of “MGRFRRVLTTAVLTTLLVGGTAGWASASSASVPGGPLPGTAAWLADDFLGRELPDPGTATPAEVAAFFAGLSDVQRHRLAEDHPAVVGNLDGVPVHLRYEANAPAGDRVLAYDPRGRGTIARVAGDLENAAHVSVIVPGSDIDAETFDRTAQRAADLQAAAGDDTAVIAWAGYTTPSGIGPDLATGRLAEAGAERLARLTEGLDAAGLPDPSLFCHSYGSVVCGLAADDTDARDIVVMGSPGMRADDVGALGTDAHVWAAKSPDDWIDRVPNVEFLGLGHGADPTSPGFGATVLPADDVPAHDEYFTPGTSTLAAFAAIADGERPLEHHHHHH”, the “soluble on expression in E. coli” value was “not soluble”.

For “MGRGRAKAKQTKVARELKYSSPQTDFQRLQRELSGTGTDRLDGDGPSDDDSWNDEDDWRR”, the “soluble on expression in E. coli” value is “not soluble”.

As for “MGRIRQTFIKRTGEELIEKFADKFTSDFEENKKAVEEVAMISTKPLRNRIAGYVTAKVKKMNALEHHHHHH”, the “soluble on expression in E. coli” value is recorded as “not soluble”.

Regarding “MGRKEMLQNGVQQVFYEEEWYPPISEAVKNLTVEQACWQPEGAASNTIWENVNHLLIFKERLLSRLHEDDTFVAPQNNDETFIQGGPNDDAAWQQTVKRTLQVHDALQSSLTALQEAELDQLSPSLPVWQQYMNILLHDAYHTGQIIQLRKLQGSWPTHRSYL”, the “soluble on expression in E. coli” value was “not soluble”.

In the case of “MGRKNSPSANKELNELIAQYETARAENRQLYLDGDQLADIADQYAAERKFNEAQEVITYGLHLHPDSTDLLVEQAYLYLDTGKIPLAKKVVESITDEYDTDVKMLKAELMLNEGQLENARNVLDTIEDADELETIINIVYLYMDMGYPEAAKEWLDKGAPRHGKKEDFMAVMADYLTGTNQLEAASTFYNQLIDIDPYNASYWVGLAKCRFAAEDCEKAIEACDFALAADDKCGEAYAYRGHSYFYLNNSDAAIEDYKKAIKYKALPPEMGYMFLGLTYSNKEAWKEADDYYQRVIDRFIEEGLGNSPLLIDTYTNKAVAASRLGKYEEAHQLCKKAIAIQPDDPAIYLAEGKLYIQENQKKKAVKSFDKALTMEPSAEMWYMVASAYSDAEYLYQAKLCFQEAYRIDPNYADIAEKLSVLSLMHNEIDDFFKYNNESEHPISEDIILELLSRPNQTEEGEQMLREVWERMKKEKGNN”, the “soluble on expression in E. coli” value is on record as “not soluble”.

As for “MGRLFVVNLEGKIYSCKHCKTHLATYEDIISKSFHCKHGKAYLFNKVANVSIGETEERLMMTGKHTVADIFCVSCGSIVGWKYETAHEKNQKYKEGKSVLERFKISGPDGSNYWVSSHGRHIGGSDADDA”, the “soluble on expression in E. coli” value is on record as “soluble”.

For “MGRSPCFFKSFKGKLHKDRSPDPSTLASPHPSTEARRPVEAGSAEWTWGWMKRLPPASLSPGIAMSCYSGDSMLQKYKVKNAYRLHWQGREEPGASTFASLVFQ”, the “soluble on expression in E. coli” value was “soluble”.

Regarding “MGRVVLWLLLLALLPAYAQETYDWIVVLGAAQYGGRPSPALERRLQAALHLFREGRGRRIAVAGGKAPEDLYSEGEVGCRYLAARGVPEEALFCETRSRSTYENLLFLKPHLEGRLLLVTDAPHLPRALFLARLLGLEAEGYPVPGNYPLGYWAKEALYRLWLYLGLRPQGVFSSRFNASRAAALEHHHHHH”, the “soluble on expression in E. coli” value was “not soluble”.

Take “MGSDKIHHHHHHACDDNKDEFLDEFSTILSFRNCDEIEVEVYNTGENGEYQLIVNKSGAQLGTVTRASIDVMDKALLEIYNEQNGKDYQLYPEDCYVFNGDKQIEFGPNDTYQTRSVTLITDKILESNQQEGNFVIPFILQNSADSINAERKYVFLKPAVIVPNVAFEKTGYNLNIISDAMDANEIELNLPAVFSVDNKWNFSCTLEPDESLLTEYNEKNGVDYTMLSEEAYTLSNEGKILFTAGSKSASLTVTVKRNKLSYGNYVLPLKMTQCSSPYFEINPNKQSCLFGISYVPDESKLHPVTLSRGMTAIHPNREVEGKIDYMFDGNPDTYYHSDYLEEPGLPHWIQLNLDEPHTALMFEYQVRHNNNNGAPQRISVLGSMDGITFSKIMTIMEGFPTATKGTYKSPVLVGKEFKHIRLVVESTPAGNSFALAELKLHVN”: the “soluble on expression in E. coli” value is listed as “not soluble”.

“MGSDKIHHHHHHADGRYIEVTGTSEIEIVPDRIHYIIEIREYFEEEFDGRSKPEEYRTKISLDRIEQGLREVLHDAGISPNAVRTQEIGDYWRKQGQDFLVAKTFDITLLDFKQIDEILKRMDTKGIHTMRIGELENKDMLSYHQKGKIAALKAAQRKASYLVEALGKKLGPVIRIVEDEAGSSLPFSQSNVLSSSVVSFDSFRTIKKKYSMLVRFEIAD”: the “soluble on expression in E. coli” value is listed as “not soluble”.

Consider “MGSDKIHHHHHHADILSCTVDGDILKAEPEIDNESVTLTVKSDADITNLAPVFTLTPGATITPASGSAFDFTTPRTYTVTSEDGHWTKTYTVRCIVSGVSTEYHFEHITMEPKNGRYQIFYDFTSNGDSVTWASGNAGFALTNNKLEPLDFPTMQDDNGYVGKCAKLVTRSTGSFGSGFGMPIAAGNLFIGTFDLLNAIPDARKGTRLGRPFDHVPTYLSGYYKYKAGESYKVNGEEVKGKKDQCDIYAIFYETDENVKYLDGFNGLTSPNLISVARISDQKETDEWTRFYIPFVAKPGKVIDKDKLAKGGYQLSIVFSSSLKGDVFEGAEGSTLWIDEVEIIQSGEN”, for which the “soluble on expression in E. coli” value is reported as “not soluble”.

Consider “MGSDKIHHHHHHAELPLEEGVSVRFEIKRDGVMSRAPGDAALSVNRILILPFRKTDEASSNDAANFVPEYSAARQLDVNSFPAVVTMLTLSAASTYQLLVIGYNRSDYDFASGGGATKRFNIGSTGNPATLANLYLQPVNPTVVPEFFSCFGNGYRGTTLVGPIFKPSQINYVTGTLKRLVSGFTLEVTNVPAYVNSMTLIAEQLVTATRATDGTALTWQTAGDGGTKTLATQAPVSGKVSFNQFLLAIPDSRKTLFYLDVSYGIFTERYTVKLPDTPGVVSGNRIIFTPNHWVKVTGSYANINIGFTLAGNINLDDNAWDGLQ”, for which the “soluble on expression in E. coli” value is given as “not soluble”.

For the sequence “MGSDKIHHHHHHAIKNCQIHTFSLSHDSVSGLDTVKFTIDQLTGRIFNIDSLPFGTKIEKVVCKIGFANSSVIGGVEASPEAYPDSTYYLSSLSDSIDFSAPVKFVVHAYDQVTTKVYMAQVNIHQVVPDSMVWSMYANPMIGITVKDQKVVTYDYNGSENYFMYVKPAESGKPYQLYYAPVSAPKGWQSLSLTGLPSDGLLISQITEYNNALYVPATNGTLYRSEDGLTWSAVENAPSVKYVLGSVKQGTKQPSALATIVDQEGKLAFYAMNESMEWIAGDAVPSGFPVTGFSNLQYAAMYHEYLMTASGRTVDNQVVNTTWATMDGISWALMASGDANFTKREGAMITNYDDKFFLIGGIDASNKALKDMYQSIDYGISWSLIDSMVVLPTDYAARGFSSIIVDKENFVNIFGGKISTGSNDLNQLWRGRINRLIPKE”, the “soluble on expression in E. coli” value is on record as “not soluble”.

As to “MGSDKIHHHHHHAISVGNLTFSLPAEADFASKRVVNNNKSARLYRIAVSAIDRPGGSEVRSRPVDGELLFAPRQLVLQAGESEYFKFYYHGPRDNRERYYRVSFREIPTRNLTRRSPTGGEVSMEPVVVMDTILVVRPREVQFKWSFDKVAGTVSNTGNTWFKLLIKPGCDSTEEEGDAWYLRPGDVVRQPALRQPGNHYLVYNDKFIKISDTCPLKPRPAE”, the “soluble on expression in E. coli” value was “not soluble”.

In the case of “MGSDKIHHHHHHAMFPERYVSEESAARADTINFRLASAGEAKRLIAAKDSYTANWSPFDIAARLENPEGKREDLVSLAVREVREWTAEEAQQIEQIRKNLNDTIRKYGYRIPFPKEIVLVKTTMKDEGGAGGYTRSNWIALTDATFQRGTEASHTRLLVHETFHILTRLNPGFKKKLYRAIDFNILPKEIEFPEDIRKSRISNPDVSRCDSYATFTIDGKPQNCTMIIYTNRPYTTGKFYQYINVGLIPLDESFKPLRESGKTVIYPLQKATDFFDKVGRNTGYVIDPEEVLADNFAIALLNTPNVHTPELQKKVQELLK”, the “soluble on expression in E. coli” value was “not soluble”.

Turning to “MGSDKIHHHHHHANTQTNIQLERTSSDIEHALYYASFAANSHNTQSWKVNLDPKQKRLGVFLNNKRSLNVVDPNNRELYISIGCYIQSLKKSFEAYGYNVSISNIAPSKENKYQVVLINYQKLKNNKINNKQLDIIQKRHTDKRKFQKKPINRTVVSSLIKKYNNVYYYAKGSKTFKYLQKGSLAAAAKQYKNQDFLKEQGKWLRFSNQEVEKKQDGISGDMLGLNPIIKTLYYLTSNHKNATSNNFVKQSKNTLINQVENCAGFFVITGEQNISKWIAVGEKSQAFWYDCVRNNIAVQPISAMIEIPSYNQKLQQNLGKSQPVQLILRVGYVNSYGKNVGPRRNLKDYITVKK”, the “soluble on expression in E. coli” value is given as “not soluble”.

With “MGSDKIHHHHHHAQKGEKTLTVEVSNEWTQNKTDEPIVIDLNNLKAGFNIKSATVWEGNKEIPSQLDDLNGDARADELAFLIDMPAKSNKSFRIILSSEKSEKNYPARTYAQMKAYGHNNKFANITGFSAAGTENVYSFVYHHGPAIESELVAYRIYFNEKQTVDPYSKVNKRLEIKETCFYPTKAQRANGYGDDALRVYNSGGVGALKGWNGTEATHIKPVVNRTERVLASGPVRAIVEAEVIGWEYQGNDLNMINRYTIYGGHRDMKVDVLFDRPLKQEVFAAGVQILKEGGHMSDHKGLTGSWGTDWPVTDTIGYVKETTGMGTFIPKYIGKEVQDGSNYLYTLQAPGQQHFHYYVTFTSKKESFGFKDMKDWFNYLPQWRKELEHPCKITIK”, the “soluble on expression in E. coli” value was “not soluble”.
